The record followed here is patent US8021833.

The target of the assay is TSG101 (UniProt Q99816). The assay is described as follows: cell-based or functional assay.
Chain of UniProt Q99816 (Q99816 2-390 limits assumed): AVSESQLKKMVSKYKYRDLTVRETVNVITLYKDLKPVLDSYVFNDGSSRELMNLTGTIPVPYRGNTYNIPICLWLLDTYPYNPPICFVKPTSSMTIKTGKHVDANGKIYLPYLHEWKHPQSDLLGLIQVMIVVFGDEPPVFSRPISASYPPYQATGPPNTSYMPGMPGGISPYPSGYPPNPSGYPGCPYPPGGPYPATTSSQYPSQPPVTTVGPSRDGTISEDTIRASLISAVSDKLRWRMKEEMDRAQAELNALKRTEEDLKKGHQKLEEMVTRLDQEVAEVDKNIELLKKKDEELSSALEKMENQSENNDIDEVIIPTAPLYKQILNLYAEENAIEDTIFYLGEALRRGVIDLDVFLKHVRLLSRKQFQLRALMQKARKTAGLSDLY

Regarding “Vps28 mutant with deletion of the N-terminal 27 amino acids, C-terminal Flag tag (from UniProt Q9UK41 28-221)”, the release of HIV-1 from transfected 293T cells is 72 % reduction.

In turn, “Vps28 mutant with deletion of amino acids 126 to 167, C-terminal Flag tag (from UniProt Q9UK41 1-125; Q9UK41 168-221)” gave a release of HIV-1 from transfected 293T cells of 63 % inhibition.

For the substance “Vps28ΔC, C-terminal 43-amino acid deletion mutant of Vps28, C-terminal Flag tag (from UniProt Q9UK41 1-178)”, the release of HIV-1 from transfected 293T cells turned out to be 67 % reduction and the release of HIV-1 from transfected 293T cells, repeated experiments was 53 to 75 % inhibition.
